Target: …
Assay: G assay

| Binder | binding result |
| --- | --- |
| GST-PAR3 PDZ domain 3 fusion protein (other, not shown: a dimerising Fc or GST; small tags and cut ends, also called PAR3 d3 (278.1); PAR3 d3) PREFLTFEVPLNDSGSAGLGVSVKGNRSKENHADLGIFVKSIINGGAASKDGRLRVNDQLIAVNGESLLGKTNQDAMETLRRSMSTEGNKRGMIQLIVASRISKCNELKSNSS | binds |
| GST-ZO-1 PDZ domain 2 fusion protein (other, not shown: a dimerising Fc or GST; small tags and cut ends, also called ZO-1 d2 (241.3); ZO-1 d2) ISSQPAKPTKVTLVKSRKNEEYGLRLASHIFVKEISQDSLAARDGNIQEGDVVLKINGTVTENMSLTDAKTLIERSKGKLKMVVQRDRATLLNSS | binds |
| GST-RIM2 PDZ domain 1 fusion protein (other, not shown: a dimerising Fc or GST; small tags and cut ends, also called RIM-2 d1; RIM2 (177.4)) TLNEEHSHSDKHPVTWQPSKDGDRLIGRILLNKRLKDGSVPRDSGAMLGLKVVGGKMTESGRLCAFITKVKKGSLADTVGHLRPGDEVLEWNGRLLQGATFEEVYNIILESKPEPQVELVVSRPIG | binds |
